Reference: patent US20120070434A1
Where two headings read alike, the source gives them in different places.

B1: HC+LC-TPO antibody (antibody)
heavy: QVQLVQSGAEVKKPGASVKVSCKASGYTFTYYAMHWVRQAPGQRPEWMGWINGGDGKTKYAQKFQGRLAITRDTSARTAYMELISLTSEDTAVYYCAKGAEMTVGSWGPGTLVTVSSASTKGPSVFPLAPCSRSTSESTAALGCLVKDYFPEPVTVSWNSGALTSGVHTFPAVLQSSGLYSLSSVVTVPSSNFGTQTYTCNVDHKPSNTKVDKTVERKCCVECPPCPAPPVANPIEGPTLRQWLAARARGGPSVFLFPPKPKDTLMISRTPEVTCVVVDVSQEDPEVQFNWYVDGVEVHNAKTKPREEQFNSTYRVVSVLTVLHQDWLNGKEYKCKVSNKGLPSSIEKTISKAKGQPREPQVYTLPPSQEEMTKNQVSLTCLVKGFYPSDIAVEWESNGQPENNYKTTPPVLDSDGSFFLYSRLTVDKSRWQEGNVFSCSVMHEALHNHYTQKSLSLSLGK
light: DIQMTQSPSSLSASVGDRVTLTCRASQGVRNALVWYQQKPGKAPERLIYAASILQSGVPSRFSGSGSGTEFTLTIGGLQPEDFATYYCLQHNSYPWTFGQGTKVEIKRTVAAPSVFIFPPSDEQLKSGTASVVCLLNNFYPREAKVQWKVDNALQSGNSQESVTEQDSKDSTYSLSSTLTLSKADYEKHKVYACEVTHQGLSSPVTKSFNRGECARSLIEGPTLRQWLAARAPI

Assays:
[1] = molecular target: Recombinant TPO receptor (R&D Systems); experiment: BLI (Octet), biotinylated TPO receptor on streptavidin probe, second experiment
[2] = molecular target: Recombinant TPO receptor (R&D Systems)

Row | Molecule | Kd [1] | Kd [2]
1 | recombinant human thrombopoietin (from UniProt P40225 22-353) (ligand) | 3 nM | 
2 | B1 | 3 nM | 2.32 nM
